Measured values: patent US20140072558A1

Target: ACVR2B as used in surface plasmon resonance (UniProt Q13705)
Experiment: SPR; with 0.625 nM B09

Sequence of ACVR2B as used in surface plasmon resonance (Q13705 19-134): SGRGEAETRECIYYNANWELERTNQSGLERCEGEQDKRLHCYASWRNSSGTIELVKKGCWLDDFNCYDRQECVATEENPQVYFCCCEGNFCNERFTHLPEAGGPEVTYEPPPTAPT

Kd: 4.07E-10 ?
Substance: water-soluble DLK1 treated together with the B09 antibody (from UniProt P80370 25-302)
